Assay [1] deals with T1, murine IL-11 (mouse, UniProt P47873 22-199).
T1 construct: bought from Invigate; also called mIL-11; mIL11
T1 sequence: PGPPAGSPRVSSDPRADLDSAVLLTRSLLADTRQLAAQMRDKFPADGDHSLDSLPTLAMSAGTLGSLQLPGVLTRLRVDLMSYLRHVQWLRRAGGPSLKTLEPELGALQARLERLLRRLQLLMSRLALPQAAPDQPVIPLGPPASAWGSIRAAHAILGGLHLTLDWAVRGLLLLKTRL
The experiment in a line: SPR, antibody captured, IL-11 as analyte. As for the experimental part:
(§1) Antibodies were captured via anti-mouse Fc IgGs (“Mouse antibody capture kit, Order No. BR100383, Cytiva) covalently amine coupled to a Series S CM5 sensor chip (Cytiva). The amine coupling was carried out according to the manufacturer's instructions using 1-ethyl-3-(3-dimethylaminopropyl) carbodiimide hydrochloride (EDC), N-hydroxysuccinimide (NHS) and ethanolamine HCl, pH 8.5 (“Amine Coupling Kit” BR-1000-50, Cytiva.). Human IL-11 (Invigate, e.g., lot #C121021-19), and murine IL-11 (Invigate, e.g., lot #C210819-09) were used as analytes. […] Based on that experiment an IL-11 concentration range was chosen to optimally determine kinetics and affinity of anti-IL-11 antibodies in multicycle kinetics mode. The sensor surface was regenerated with glycine pH 1.7 after each antigen injection. Obtained sensorgrams were double referenced (subtraction of reference flow cell signal and buffer injection) and were fitted to a 1:1 Langmuir binding model to derive kinetic data using the Biacore T200 Evaluation software or the Biacore Insight software.
(§2) For the 2nd round of germlining, single reversions were then combined on DNA level, expressed and purified as described in Example 15, and tested by SPR as described in Example 16.
(In general: In SPR one partner is held on a chip, and binding of the other changes the refractive index at the surface.)

In assay [2] the target is T2, human IL-11 (human, UniProt P20809 22-199).
T2 construct: bought from Invigate; also called hIL-11; hIL11
T2 sequence: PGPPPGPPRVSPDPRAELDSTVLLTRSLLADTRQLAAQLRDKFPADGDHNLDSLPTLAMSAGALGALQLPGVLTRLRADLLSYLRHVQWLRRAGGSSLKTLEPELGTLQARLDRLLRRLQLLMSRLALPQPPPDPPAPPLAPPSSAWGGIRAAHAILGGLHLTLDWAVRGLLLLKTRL
The experiment in a line: SPR, antibody captured, IL-11 as analyte. The method, then: as §1, §2

For assay [3], the target named is T1, murine IL-11. The experiment in a line: cell-based or functional assay.
Assay [4] has as its target T2, human IL-11. The experiment in a line: cell-based or functional assay.

B1: TPP-21150 (antibody, V domains shown)
VH: EVQLLESGGGLVQPGGSLRLSCAASGFTFSSYGMHWVRQAPGKGLEWVSVISYDGSYKYYADSVKGRFTISRDNSKNTLYLQMNSLRAEDTAVYYCAAGVPDYWGQGTLVTVSS
VL: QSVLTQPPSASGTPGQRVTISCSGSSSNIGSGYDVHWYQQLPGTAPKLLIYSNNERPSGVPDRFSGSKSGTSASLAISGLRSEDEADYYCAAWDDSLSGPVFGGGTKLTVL
As to B1, the Kd (usually the equilibrium constant for the complex coming apart) with murine IL-11 [1] was 1.4 nM; in the assay with human IL-11 [2] it was 5.6 nM. Also, the “Efficacy (%), RGA” value with murine IL-11 [3] is 92.2%; in the assay with human IL-11 [4], 46.9%. For the same molecule, the figures for the “IC50, RGA” value in the assay with murine IL-11 [3] and with human IL-11 [4] were 1.6 nM and 12 nM, respectively.

B2: TPP-27159 (antibody, human IgG1, lambda, V domains shown)
VH: EVQLLESGGGLVQPGGSLRLSCAASGFTFSSYGMHWVRQAPGKGLEWVAVISYDGSYKYYADSVKGRFTISRDNSKNTLYLQMNSLRAEDTAVYYCAAGVPDYWGQGTLVTVSS
VL: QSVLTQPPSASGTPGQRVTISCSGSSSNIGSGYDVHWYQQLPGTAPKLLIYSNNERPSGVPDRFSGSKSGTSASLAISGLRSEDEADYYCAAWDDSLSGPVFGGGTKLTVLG
notes: hIgG1, Lambda
Consider B2, for which the Kd with murine IL-11 [1] was determined as 1.1 nM; with human IL-11 [2], 5.4 nM. Further, the “Efficacy (%), RGA” value with murine IL-11 [3] was found to be 82.4%; with human IL-11 [4], 43.2%. Also, the “IC50, RGA” value turned out to be 1.9 nM with murine IL-11 [3] and 19 nM with human IL-11 [4].

B3: TPP-27162 (antibody, V domains shown)
VH: EVQLLESGGGLVQPGGSLRLSCAASGFTFSSYGMHWVRQAPGKGLEWVAVISYDGSYKYYADSVKGRFTISRDNSKNTLYLQMNSLRAEDTAVYYCAAGVPDYWGQGTLVTVSS
VL: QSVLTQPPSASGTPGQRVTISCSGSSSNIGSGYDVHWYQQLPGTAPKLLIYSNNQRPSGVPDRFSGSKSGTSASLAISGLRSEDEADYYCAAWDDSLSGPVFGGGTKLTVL
Regarding B3, the Kd with murine IL-11 [1] came to 3.2 nM; with human IL-11 [2], 7.4 nM. Further, the “Efficacy (%), RGA” value with murine IL-11 [3] came to 77.6%; in the assay with human IL-11 [4], 36%. Besides, the figures for the “IC50, RGA” value in the assay with murine IL-11 [3] and in the assay with human IL-11 [4] were 3.3 nM and 91 nM, respectively.

B4: TPP-21158 (antibody, V domains shown)
VH: EVQLLESGGGLVQPGGSLRLSCAASGFTFSSYGMHWVRQAPGKGLEWVAVISYDGSYKYYADSVKGRFTISRDNSKNTLYLQMNSLRAEDTAVYYCARGVPDYWGQGTLVTVSS
VL: QSVLTQPPSASGTPGQRVTISCTGSSSNIGAGYDVHWYQQLPGTAPKLLIYSNNERPSGVPDRFSGSKSGTSASLAISGLRSEDEADYYCAAWDDSLNGPVFGGGTKLTVL
As for B4, the figures for the Kd with murine IL-11 [1] and with human IL-11 [2] were 13 nM and 47 nM, respectively. Moreover, the “Efficacy (%), RGA” value in the assay with murine IL-11 [3] stood at 73.2%; with human IL-11 [4], 19.4%. Besides, the “IC50, RGA” value with murine IL-11 [3] worked out at 2.4 nM.

B5: TPP-27158 (antibody, V domains shown)
VH: EVQLLESGGGLVQPGGSLRLSCAASGFTFSSYGMHWVRQAPGKGLEWVAVISYDGSYKYYADSVKGRFTISRDNSKNTLYLQMNSLRAEDTAVYYCAAGVPDYWGQGTLVTVSS
VL: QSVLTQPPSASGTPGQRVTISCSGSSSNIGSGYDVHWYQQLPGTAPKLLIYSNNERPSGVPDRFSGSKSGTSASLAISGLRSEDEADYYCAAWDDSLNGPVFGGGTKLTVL
B5: the values for the Kd with murine IL-11 [1] and with human IL-11 [2] were 0.4 nM and 5.9 nM, respectively. Besides, the “Efficacy (%), RGA” value stood at 89.9% with murine IL-11 [3] and 55.8% with human IL-11 [4]. Further, the results for the “IC50, RGA” value in the assay with murine IL-11 [3] and with human IL-11 [4] were 1.4 nM and 20 nM, respectively.

B6: TPP-21153 (antibody, V domains shown)
VH: EVQLLESGGGLVQPGGSLRLSCAASGFTFSSYGMHWVRQAPGKGLEWVSVISYDGSYKYYADSVKGRFTISRDNSKNTLYLQMNSLRAEDTAVYYCAAGVPDYWGQGTLVTVSS
VL: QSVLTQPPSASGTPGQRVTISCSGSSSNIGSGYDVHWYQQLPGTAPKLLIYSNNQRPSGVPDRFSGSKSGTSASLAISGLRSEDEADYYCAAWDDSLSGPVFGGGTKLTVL
B6: the Kd with murine IL-11 [1] is 3.6 nM; with human IL-11 [2], 10 nM. The “Efficacy (%), RGA” value with murine IL-11 [3] worked out at 81.2%; with human IL-11 [4], 34%. Further, the “IC50, RGA” value was found to be 3.4 nM in the assay with murine IL-11 [3] and 26 nM with human IL-11 [4].

B7: TPP-21157 (antibody, V domains shown)
VH: EVQLLESGGGLVQPGGSLRLSCAASGFTFSSYGMHWVRQAPGKGLEWVSVISYDGSYKYYADSVKGRFTISRDNSKNTLYLQMNSLRAEDTAVYYCAAGVPDYWGQGTLVTVSS
VL: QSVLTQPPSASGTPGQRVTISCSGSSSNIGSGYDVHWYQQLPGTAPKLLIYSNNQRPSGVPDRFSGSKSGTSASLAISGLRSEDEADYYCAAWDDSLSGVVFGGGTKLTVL
As to B7, the equilibrium dissociation constant (Kd) was found to be 73 nM with murine IL-11 [1] and 13 nM with human IL-11 [2]. The “Efficacy (%), RGA” value with murine IL-11 [3] came to 59.2%; with human IL-11 [4], 13.4%. Moreover, the “IC50, RGA” value with murine IL-11 [3] was found to be 44 nM.

B8: TPP-27160 (antibody, V domains shown)
VH: EVQLLESGGGLVQPGGSLRLSCAASGFTFSSYGMHWVRQAPGKGLEWVAVISYDGSYKYYADSVKGRFTISRDNSKNTLYLQMNSLRAEDTAVYYCAAGVPDYWGQGTLVTVSS
VL: QSVLTQPPSASGTPGQRVTISCSGSSSNIGSGYDVHWYQQLPGTAPKLLIYDNNERPSGVPDRFSGSKSGTSASLAISGLRSEDEADYYCAAWDDSLSGPVFGGGTKLTVL
Regarding B8, the Kd is 56 nM with murine IL-11 [1] and 180 nM in the assay with human IL-11 [2]. Besides, the “Efficacy (%), RGA” value is 63.8% in the assay with murine IL-11 [3] and -2.8% with human IL-11 [4]. Besides, the “IC50, RGA” value with murine IL-11 [3] amounted to 10 nM.

B9: TPP-27154 (antibody, V domains shown)
VH: EVQLLESGGGLVQPGGSLRLSCAASGFTFSSYGMHWVRQAPGKGLEWVSVISYDGSYKYYADSVKGRFTISRDNSKNTLYLQMNSLRAEDTAVYYCAAGVPDYWGQGTLVTVSS
VL: QSVLTQPPSASGTPGQRVTISCTGSSSNIGAGYDVHWYQQLPGTAPKLLIYSNNERPSGVPDRFSGSKSGTSASLAISGLRSEDEADYYCAAWDDSLSGPVFGGGTKLTVL
For B9, the Kd came out at 1.3 nM with murine IL-11 [1] and 5.4 nM with human IL-11 [2]. For the same molecule, the “Efficacy (%), RGA” value in the assay with murine IL-11 [3] was determined as 92.9%; with human IL-11 [4], 58.7%. The “IC50, RGA” value with murine IL-11 [3] amounted to 1.8 nM; in the assay with human IL-11 [4], 24 nM.

B10: TPP-27157 (antibody, V domains shown)
VH: EVQLLESGGGLVQPGGSLRLSCAASGFTFSSYGMHWVRQAPGKGLEWVAVISYDGSYKYYADSVKGRFTISRDNSKNTLYLQMNSLRAEDTAVYYCAAGVPDYWGQGTLVTVSS
VL: QSVLTQPPSASGTPGQRVTISCTGSSSNIGAGYDVHWYQQLPGTAPKLLIYSNNERPSGVPDRFSGSKSGTSASLAISGLRSEDEADYYCAAWDDSLSGPVFGGGTKLTVL
Consider B10, for which the Kd with murine IL-11 [1] came out at 1.1 nM; with human IL-11 [2], 5.1 nM. Besides, the entries for the “Efficacy (%), RGA” value in the assay with murine IL-11 [3] and with human IL-11 [4] were 86.4% and 51.2%, respectively. The “IC50, RGA” value with murine IL-11 [3] was 1.4 nM; in the assay with human IL-11 [4], 13 nM.

B11: TPP-27155 (antibody, V domains shown)
VH: EVQLLESGGGLVQPGGSLRLSCAASGFTFSSYGMHWVRQAPGKGLEWVSVISYDGSYKYYADSVKGRFTISRDNSKNTLYLQMNSLRAEDTAVYYCAAGVPDYWGQGTLVTVSS
VL: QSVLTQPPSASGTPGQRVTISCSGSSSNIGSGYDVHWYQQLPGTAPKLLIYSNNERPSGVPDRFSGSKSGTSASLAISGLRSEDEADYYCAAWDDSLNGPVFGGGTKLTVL
B11: the values for the Kd with murine IL-11 [1] and with human IL-11 [2] were 0.65 nM and 5.8 nM, respectively. Moreover, the figures for the “Efficacy (%), RGA” value with murine IL-11 [3] and with human IL-11 [4] were 94.3% and 56.5%, respectively. In addition, the “IC50, RGA” value in the assay with murine IL-11 [3] worked out at 1.1 nM; with human IL-11 [4], 20 nM.

B12: TPP-27163 (antibody, V domains shown)
VH: EVQLLESGGGLVQPGGSLRLSCAASGFTFSSYGMHWVRQAPGKGLEWVAVISYDGSYKYYADSVKGRFTISRDNSKNTLYLQMNSLRAEDTAVYYCAAGVPDYWGQGTLVTVSS
VL: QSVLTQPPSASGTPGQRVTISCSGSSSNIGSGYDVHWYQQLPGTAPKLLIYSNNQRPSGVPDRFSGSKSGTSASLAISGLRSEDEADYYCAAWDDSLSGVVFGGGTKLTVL
Regarding B12, the Kd was 28 nM with murine IL-11 [1] and 12 nM with human IL-11 [2]. The “Efficacy (%), RGA” value in the assay with murine IL-11 [3] was found to be 52.3%; in the assay with human IL-11 [4], 2.9%. In addition, the “IC50, RGA” value with murine IL-11 [3] stood at 52 nM.

B13: TPP-27156 (antibody, V domains shown)
VH: EVQLLESGGGLVQPGGSLRLSCAASGFTFSSYGMHWVRQAPGKGLEWVAVISYDGSYKYYADSVKGRFTISRDNSKNTLYLQMNSLRAEDTAVYYCAAGVPDYWGQGTLVTVSS
VL: QSVLTQPPSASGTPGQRVTISCTGSSSNIGAGYDVHWYQQLPGTAPKLLIYSNNERPSGVPDRFSGSKSGTSASLAISGLRSEDEADYYCAAWDDSLNGPVFGGGTKLTVL
Turning to B13, the Kd with murine IL-11 [1] is 0.45 nM; with human IL-11 [2], 6.6 nM. Besides, the “Efficacy (%), RGA” value is 90.6% with murine IL-11 [3] and 50.4% with human IL-11 [4]. Moreover, the “IC50, RGA” value was found to be 1.2 nM in the assay with murine IL-11 [3] and 15 nM with human IL-11 [4].

The values are drawn from patent US20240317847A1 (Bayer, published 2024).
